# From the DeepSol protein solubility set
# Test: soluble on expression in E. coli; label from the status in PepcDB or PDB records
row,Sequence,soluble on expression in E. coli
1,MQEKTTESRILDATGRPFKVREAKELQTDDVRLAGLHRTFSNHPSSGLTPASAASILLSAEQGDLIAQCELAEDIEEKDGHLFAELDKRKRALIGVDYYLEPPSNPTPQEKADTEYLQQMLEEGGWIKSLIKSIADAILKGFSMHELAWSRELGEWFVEVPEYRDPSWFMTHPERRNELRLRDSTHEGAELWPFGWIKHIHPAKSGYVSRSGLVRQLIWPFIFKNYSVRDLAEFLEIYGLPLRIGQYPAGASDGEKRALLNAVMSIGHNAGGIMPKGMVMDFHSAATGQADPFELMMTWAEKTMSKVILGGTLTTQADGKSSTNALGNVHNEVRQELRDADLALVAETLTRDLIAPLYALNCKSYRSHRRHPRLVFDTTEAEDLRALAYPLRAFVSMGMQIPQNWLHEKTRIPKPANGEAVLVIQQDDPNATAASQTALAALSAKEGAAKQPDASLNEPSQTALDKALDALTQGQMSEAYMGMVEPLLAQLQSEPEQLRAQLEQNYPNMDTEQLTETLARLMFVAELWGMANA,not soluble
2,MSEREHWQRVYESKPSDAVSWFQAEATLSLDLIRRIGAPREAAIIDVGGGASTLVDGLLAEGFGDLTVLDLSDAALRVARNRLGARGEEVRWIAGDITGVDLPEATYDVWHDRAVFHFLTTAEARRAYVRQVMKAVRHGGHVIVATFAADGPTECSGLPVMRYDADELHAEFGSAFQLTEHRDEHHVTPAGRVQHFVYCHCLKRLLEHHHHHH,not soluble
3,MHLYSSDFPLMMDEKELYEKWMRTVEMLKAEGIIRSKEVERAFLKYPRYLSVEDKYKKYAHIDEPLPIPAGQTVSAPHMVAIMLEIANLKPGMNILEVGTGSGWNAALISEIVKTDVYTIERIPELVEFAKRNLERAGVKNVHVILGDGSKGFPPKAPYDVIIVTAGAPKIPEPLIEQLKIGGKLIIPVGSYHLWQELLEVRKTKDGIKIKNHGGVAFVPLIGEYGWKEHHHHHH,soluble
4,SEPIAAAPQIPVSEWDNPGIKLQVAPIPRICGMPEVQDMKLITPVRRSARIERTVARYPEMLQEHDVVVASLNELLEVDKTECFIFRENEALPVTLGFEVLES,not soluble
5,MGSDKIHHHHHHMYLSQLKAGGVICRQGETARLVPGFSSTYDLAKAAIAAKVSITDLIAKQGAGDTVDLAALAASGKLDCPVRHPDAAHMFLTGTGLTHTGSASARDNMHADTAGMSDSMKMFRMGLEGGKPKAGEWGVQPEWFYKGTGVNAIAPGDGLESPSFALDGGEEPEIAGFYVIDNDGTPVRLGFSLANEFSDHVTEKINYLYLAHSKLRPASFGPELLVGDLPANVTGASKILRDGKTVWEKPFLSGEDNMSHTIANLEYHHFKYGLFCQPGDLHVHMFGTATLSFADGFKTVPGDVFEVSASQFGLPLQNPLVVAAETPFAVKTL,not soluble
6,MSLGPPSIARTVTPNASIPKTPEDISILPVNDEPGYLQDSKTEQNYPELADAVKSQTSQTCSEEHKYVIMIDAGSTGSRVHIYKFDVCTSPPTLLDEKFDMLEPGLSSFDTDSVGAANSLDPLLKVAMNYVPIKARSCTPVAVKATAGLRLLGDAKSSKILSAVRDHLEKDYPFPVVEGDGVSIMGGDEEGVFAWITTNYLLGNIGANGPKLPTAAVFDLGGGSTQIVFEPTFPINEKMVDGEHKFDLKFGDENYTLYQFSHLGYGLKEGRNKVNSVLVENALKDGKILKGDNTKTHQLSSPCLPPKVNATNEKVTLESKETYTIDFIGPDEPSGAQCRFLTDEILNKDAQCQSPPCSFNGVHQPSLVRTFKESNDIYIFSYFYDRTRPLGMPLSFTLNELNDLARIVCKGEETWNSVFSGIAGSLDELESDSHFCLDLSFQVSLLHTGYDIPLQRELRTGKKIANKEIGWCLGASLPLLKADNWKCKIQSAEGHHHHHH,soluble
7,MSNALRGGPDFLLSVDSPVNIPSAFWSTLSPMTPRPRLLLTAALLALVPAAQAADLRLYPTLGEVTSQPLKVEGGAVTVPFPKADWAWVVPGSVRLLGVPVTRTRVTPGVNVLRAHEGEAVRVLRGGLNLKGTLADAEALLVQLDSGEYLTVRPDELAFSTRPPSSRDVADVKVTFETGGAGSANLLYQTRALSWKPRYELDASGDAATLRALAEIRNAGDQSFSGSTDLYAGDVRLVPENVPMPTLRWWENSPRPPAARAMPLSPRTALSRLSARLEHHHHHH,not soluble
8,MGKGKNKMHEPKNGRPQRGANGHSSRQNHRRMEMKYDNSEKMKFPVKLAMWDFDHCDPKRCSGKKLERLGLIKSLRVGQKFQGIVVSPNGKGVVCPDDLEIVEQHGASVVECSWARLEEVPFNKIGGKHERLLPYLVAANQVNYGRPWRLNCVEALAACFAIVGRMDWASELLSHFSWGMGFLELNKELLEIYQQCTDCDSVKRAEEEWLQKLEKETQERKSRAKEEDIWMMGNINRRGNGSQSDTSESEENSEQSDLEGNNQCIEYDSLGNAIRIDNMKSREAQSEESEDEESGSKENGEPLSYDPLGNLIR,not soluble
9,MSLSGLHQADLEMVAAAYAKSNATIVTYGMGITQHNEGTANVRLICDLLMLRGNLGKPGAGICPLRGHSNVQGNRTVGITEKPSPAFLDKLQQTFGFTPPAHHGHDAVQAMQAMIAGSAKALLCLGGNFAVALPDPGQCFPAMGKLDLSVHIATKLNRSHLLVARETFLFPCLGRTELDMQDGLRQAITVEDSMSMVHASAGKLAPASEFLLSEPAIVAGMARATLPGSRVPWLELVADYDKIRDLIEQTVPGFDDYNARIRVPGGFRMPLAAAERQWLTPSGKAEFFVFPGLHEDKEVDGADVLRLITLRSHDQYNTTIYALDDRYRGVFGRRDVLFISPADLAARGLAHGDLVDIETVIGGRRLRYEKITAIEYKIANGTVGAYYPEANRLVPLDYLDVDSGTPSYKSVPVRVLRSSPAEGHHHHHH,not soluble
10,SNASVFDLFSIGIGPSSSHTVGPMLAANAFLQLLEQKNLFDKTQRVKVELYGSLALTGKGHGTDKAILNGLENKAPETVDPASMIPRMHEILDSNLLNLAGKKEIPFHEATDFLFLQKELLPKHSNGMRFSAFDGNANLLIEQVYYSIGGGFITTEEDFDK,soluble
11,MSLSIYKDINIASAKPSLKERKNIKHYALDHLNIDEKNNAPLFKTLLEDAMRVSSKEILLIVGGSSFYLKSILEGLSRMPKLSGEEVVKIEREIATLSNPYIFLKSIDPNMAFKIHPNDTYRTHKALEIFYATCTPPSEYFKANPKKPFEHAISLFALSIEKSALHNNIKRRTKNMLHSGLVEEIKALYTQYPKDSQPFKAIGVKESVLFLEKRLTLKELEEAITSNTMKLAKRQNTFNKTQFNNLYVGSAEEVRHAILKHSKSGIKGEGHHHHHH,not soluble
12,GMDKLNEYRTKVRQLLTKHLQYKPSYGDVEVEQIFDEEHDHYQIISVGWNNQHRIYGPIMHLDIKNNKIWIQQNTTEADIALELMEMGIDKQDIVIGFHTPKMRQLSGFAVE,soluble
13,MSLDSKIDILIVVNMFLTGFDSKVLNTLYVDKNLMYHDLIQAYSRTNRVEKESKPFGKIVNYRDLKKETDDALRVFSQTNDTDTILMRSYEEYKKEFMDAYRELKMIVPTPHMVDDIQDEGHHHHHH,not soluble
14,METTQTLRFKTKALAVLSKCYDHAQTHLKGGVLQVNLLSVNYGGPRLAAVANAGTAGLISFEVSPDAVAEWQNHQSPEEAPAAVSFRNLAYGRTCVLGKELFGSAVEQASLQFYKRPQGGSRPEFVKLTMEYDDKVSKSHHTCALMPYMPPASDRLRNEQMIGQVLLMPKTASSLQKWARQQGSGGVKVTLNPDLYVTTYTSGEACLTLDYKPLSVGPYEAFTGPVAKAQDVGAVEAHVVCSVAADSLAAALSLCRIPAVSVPILRFYRSGIIAVVAGLLTSAGDLPLDLSVILFNHASEEAAASTASEPEDKSPRVQPLGTGLQQRPRHTVSPSPSPPPPPRTPTWESPARPETPSPAIPSHSSNTALERPLAVQLARKRTSSEARQKQKHPKKVKQAFNPLI,soluble
15,MGSDKIHHHHHHMNGQLLRQIANYQILYSACCKDLGLLRGKIGISLFFFHYAHFCGDSLYSDYANELIGDVYDDIRIDTPWGIRNGLLGIGWGLEYFMQKGFVECGSNDILTELDNKIMERDLRRVKDYSFDTGIEGLAWYVLIRLLSSERYLQKPFDKMYLDDLRGVCENVPNKVCHPGISLLLDYLVGKQIDDWYLVVLGKITSQRTGGEKKEALLWVEGLKYLLR,not soluble
16,MKFYRRIEPIKAMTFDLDDTLYDNHPVIIRMESELLTWLQQTHPAVAHMEKADWLQVKKHVLQQSPDLKSDVTLWRLVQLKHAFLSVGYDEAQAQVAAEEGVQLALEWRSQFDVPQQSL,not soluble
17,MGSDKIHHHHHHMNNKDLWIKEEIIWSEHKCIRFAAGGYEALIIPDVGGNVVELKDTNKGVTILRTPKKDLKFEDFKNRPQVYGLPVLFPPNRIDDGTFKLGDKTYKFPINEAKNNNYIHGFIKNSKWTVHKKKIDQDKALVEVVFDFTKENEAYKYFSHEFQFKLSYELSSKGLKQTTSVVNLSSEEMPLSVGYHSAFNVPFIEGSEDSNCRVKISIDKFWKQDSRNLPTGESFAPTGEQKEYLENGVAVASHPIESLFSLKDIDVNGKTFRGACIEDASKNTRVVYEMSSEYKYLVIWNDMGDKKYACIEPQTSIINSPNVKLDRSVSGFKTLKPNESWSGVCKLYIENM,not soluble
18,MAGGEDRGDGEPVSVVTVRVQYLEDTDPFASANFPEPRRAPTCSLDGALPLGAQIPAVHRLLGAPLKLEDSALQVSPSGYYLDTELSLEEQREMLEGFYEEISKGRKPTLILRTQLSVRVNAILEKLYSSSGPELRRSLFSLKQIFQEDKDLVPEFVHSEGLSCLIRVGAAADHNYQSYILRALGQLMLFVDGMLGVVAHSDTIQWLYTLCASLSRLVVKTALKLLLVFVEYSENNAPLFIRAVNSVASTTGAPPWANLVSILEEKNGADPELLVYTVTLINKTLAALPDQDSFYDVTDALEQQGMEALVQRHLGTAGTDVDLRTQLVLYENALKLEDG,soluble
19,MAHHHHHHMIEDNIDENCQIYLNPKNWLKEFENTKINENDINEVLMNYFCVHRMYDVAKEFQKESNVKPDMPINTVKIRYLIQNEIMNNKIEEAIEHINNLDKGILKKHKDLVFFLKKQQLLKLILNNNINEAIIYSQQELASYVKEKPSLINEIDDVMMLMAYQDFNNEEAKNLIQKIEKKKNTLKRIDDIILNYYNVDSESTLEYMVKNVFFTQNVLSSKYPCSVPKIKNLKSGYIEYYEKYKKKKRKSSSKKYRSKDKDKVDKHDKKNVDNIVKDFDVTNDEEYRSV,not soluble
20,GMISDSISKRRSIRKYKNQSISHETIEKIIEAGINAPSSKNRQPWRFVVITEKEKESMLKAMSKGIQNEINDNGLLPGSRQHIAGANYTVEIMKQAPVTIFILNILGKSPLEKLSPEERFYEMANMQSIGAAIQNMSLTAVELGLGSLWICDVYFAYRELCEWLNTDSQLVAAISLGYPDEEPSRRPRLQLSDVTEWR,soluble
21,MYTIQANPSGTRSIEVSSENLKTIEKYALFRHLIDSTGIVDEPVLDKLKLNIRSLIASQEEDSKELLDLCIDVIYHNNMKAFGLQQLIKLYLTWLSTQDAEEEEE,soluble
22,MGSDKIHHHHHHMTRNANKNNKECEKCWIFDLNQFKMITNSILEENTLVLEINQNYEVSVLMDYDVFLENGILTFKDFVNDNSKSAQVLTGSLKTGILNKMSQSISEGLLNKTTNRRTYYITEPTPLIGHTAFGLIDRGTNVIQVRGLSGCNINCPFCSVDEGIHSKSRKNDYYVDKDYLVSEYEKIADFKGYKKLEAHLDGQGEPSLYYPLPDLVQNLNEINSKNNGIVSIQTNGVHLTEKLIDDLEVAGLHRINLSINAMDEKFSKGLSGSKNYDIEKIMKIAEYIKNSKIHLLIAPLLLPNYNDEEFKKVLDFAVELEQKNPQNTINPITNKKNPIVGPQLCLTYQFGRKIPKMRVWDFPKFYNLLDVYHKEYLKDGINVDLEVPLHGFFGSHGRKRLPCPFKLNETISVTVLMDGRVNGEVIGASKNRVIQIIDCKTDINKLIGKRVKVKVLRVKDNVIVGSMVK,not soluble
